B1: cr360 (nucleic acid)
guide: GTTTAAGAGCTAAGCTGGAAACAGCATAGCAAGTTTAAATAAGGCTAGTCCGTTATCAACTTGAAAAAGTGGCATCGAGTCGATGCT
modifications: listed as DNA, chemistry not fully specified
B2: cr176 (nucleic acid)
guide: B1 guide with A59G, T70C, T75C, A83G
modifications: listed as DNA, chemistry not fully specified
B3: cr563 (nucleic acid)
guide: B1 guide with C60G, T61C, A68G, G69C, T75C, A83G
modifications: listed as DNA, chemistry not fully specified
B4: cr327 (nucleic acid)
guide: B1 guide with A64C, T75C, A83G
modifications: listed as DNA, chemistry not fully specified
B5: cr368 (nucleic acid)
guide: B1 guide with A59C, C60A, G69T, T70G, T75C, A83G
modifications: listed as DNA, chemistry not fully specified
B6: cr918 (nucleic acid)
guide: B1 guide with A59T, T70A, T75C, A83G
modifications: listed as DNA, chemistry not fully specified
B7: cr782 (nucleic acid)
guide: B1 guide with G63T, A65G, T75C, A83G
modifications: listed as DNA, chemistry not fully specified
B8: cr926 (nucleic acid)
guide: B1 guide with C25A, T75C, A83G
modifications: listed as DNA, chemistry not fully specified
B9: cr346 (nucleic acid)
guide: B1 guide with A59C, C60A, G69T, T70G, G72T, T75C, A83G, C86A
modifications: listed as DNA, chemistry not fully specified
B10: cr747 (nucleic acid)
guide: B1 guide with A59C, A65G, T70G, T75C, A83G
modifications: listed as DNA, chemistry not fully specified
B11: cr161 (nucleic acid)
guide: B1 guide with A66C, T75C, G79C, A83G
modifications: listed as DNA, chemistry not fully specified
B12: cr307 (nucleic acid)
guide: B1 guide with T75C, G77A, C81T, A83G
modifications: listed as DNA, chemistry not fully specified
B13: cr644 (nucleic acid)
guide: B1 guide with A28T, T75C, A83G
modifications: listed as DNA, chemistry not fully specified
B14: cr578 (nucleic acid)
guide: B1 guide with A31G, A65T, T75C, A83G
modifications: listed as DNA, chemistry not fully specified
B15: cr843 (nucleic acid)
guide: B1 guide with A21T, T75C, A83G
modifications: listed as DNA, chemistry not fully specified
B16: cr270 (nucleic acid)
guide: B1 guide with A59T, T61C, A68G, T70A, T75C, C76T, G82A, A83G
modifications: listed as DNA, chemistry not fully specified
B17: cr147 (nucleic acid)
guide: B1 guide with G63A, A64T, T75C, G79C, A83G
modifications: listed as DNA, chemistry not fully specified
B18: cr556 (nucleic acid)
guide: B1 guide with T62C, A67G, G72A, C73T, T75C, A83G, G85A, C86T
modifications: listed as DNA, chemistry not fully specified
B19: cr226 (nucleic acid)
guide: B1 guide with A74C, T75A, A83T, T84G
modifications: listed as DNA, chemistry not fully specified
B20: cr359 (nucleic acid)
guide: B1 guide with A28C, T75C, A83G
modifications: listed as DNA, chemistry not fully specified
B21: cr970 (nucleic acid)
guide: B1 guide with A64T, A65T, T75C, A83G
modifications: listed as DNA, chemistry not fully specified
B22: cr855 (nucleic acid)
guide: B1 guide with T46C, A55C, A65C, T75C, A83G
modifications: listed as DNA, chemistry not fully specified
B23: cr287 (nucleic acid)
guide: B1 guide with A65T, T75C, G79C, A83G
modifications: listed as DNA, chemistry not fully specified
B24: cr624 (nucleic acid)
guide: B1 guide with A55G, T75C, A83G
modifications: listed as DNA, chemistry not fully specified
B25: cr800 (nucleic acid)
guide: B1 guide with C45T, G48A, A59T, T70A, G72A, T75C, A83G, C86T
modifications: listed as DNA, chemistry not fully specified
B26: cr340 (nucleic acid)
guide: B1 guide with T62G, T75C, A83G
modifications: listed as DNA, chemistry not fully specified
B27: cr969 (nucleic acid)
guide: B1 guide with A59T, A65G, T70A, T75C, A83G
modifications: listed as DNA, chemistry not fully specified
B28: cr238 (nucleic acid)
guide: B1 guide with A74T, T84A
modifications: listed as DNA, chemistry not fully specified
B29: cr754 (nucleic acid)
guide: B1 guide with G63T, T75C, A83G
modifications: listed as DNA, chemistry not fully specified
B30: cr299 (nucleic acid)
guide: B1 guide with A64G, A65G, T75C, A83G
modifications: listed as DNA, chemistry not fully specified
B31: cr159 (nucleic acid)
guide: B1 guide with A31T, T75C, A83G
modifications: listed as DNA, chemistry not fully specified
B32: cr783 (nucleic acid)
guide: B1 guide with A59T, T70A, C73A, T75C, A83G, G85T
modifications: listed as DNA, chemistry not fully specified
B33: cr825 (nucleic acid)
guide: B1 guide with A74T, T75G, A83C, T84A
modifications: listed as DNA, chemistry not fully specified
B34: cr021 (nucleic acid)
guide: B1 guide with A8C, T75C, A83G
modifications: listed as DNA, chemistry not fully specified
B35: cr811 (nucleic acid)
guide: B1 guide with C25T, T75C, A83G
modifications: listed as DNA, chemistry not fully specified
B36: cr251 (nucleic acid)
guide: B1 guide with T54G, A64T, T75C, G79C, A83G
modifications: listed as DNA, chemistry not fully specified
B37: cr906 (nucleic acid)
guide: B1 guide with A65G, T75G, A83C
modifications: listed as DNA, chemistry not fully specified
B38: cr224 (nucleic acid)
guide: B1 guide with T61C, A68G, C73T, G85A
modifications: listed as DNA, chemistry not fully specified
B39: cr258 (nucleic acid)
guide: B1 guide with T49A, T75C, A83G
modifications: listed as DNA, chemistry not fully specified

The record followed here is US20220259593A1, “CONTROL OF MAMMALIAN GENE DOSAGE USING CRISPR” (The Regents of the University of California, priority 2019, published 2022).

Changes are numbered by the printed parent chain.

The first data set has as its system K562 CRISPRi cells. Description: Constant region variant library pooled growth screen, K562. The format is cell-based, human. As to conditions: sgRNA constant region variants; activity relative to the original, un-modified constant region cr995. In short, it runs like this: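 Relative activity expresses each targeting sequence:constant region pair's phenotype over that of the unmodified constant region. Pooled growth screen ran in K562 CRISPRi cells in duplicate spinner-flask replicates, with puromycin selection and 4–8 days' growth at >2000× coverage; library paired variants with 36 targeting sequences.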
B1 gave a Mean relative activity of 1.066.

In turn, B2 returned a Mean relative activity of 1.067.

B3 gave a Mean relative activity of 1.068.

The molecule B4 registered a Mean relative activity of 1.066.

The same data set, now with this note: sgRNA constant region variants; activity relative to the un-modified constant region cr995.
For the molecule B5, the Mean relative activity was determined as 0.9836.

Turning to B6, the Mean relative activity is recorded as 0.982.

Consider B7, for which the Mean relative activity was 0.9816.

On to B8, for which the Mean relative activity is 0.9811.

As to B9, the Mean relative activity was determined as 0.9847.

B10 registered a Mean relative activity of 0.9812.

In the case of B11, the Mean relative activity is recorded as 0.9671.

The molecule B12 gave a Mean relative activity of 0.9746.

Consider B13, for which the Mean relative activity amounted to 0.9694.

Consider B14, for which the Mean relative activity is 0.9852.

B15 had a Mean relative activity of 0.9823.

B16: the Mean relative activity was 0.9835.

In turn, B17 came in with a Mean relative activity of 0.9753.

Turning to B18, the Mean relative activity was 0.9785.

Turning to B19, the Mean relative activity is 0.9795.

Molecule B20 yielded a Mean relative activity of 0.9746.

B21 came in with a Mean relative activity of 0.9826.

As to B22, the Mean relative activity is reported as 0.9849.

Take B23: the Mean relative activity worked out at 0.9686.

The molecule B24 displayed a Mean relative activity of 0.9799.

Regarding B25, the Mean relative activity came out at 0.9728.

B26 had a Mean relative activity of 0.9853.

On to B27, for which the Mean relative activity stood at 0.9815.

Regarding B28, the Mean relative activity is 0.9809.

In turn, B29 yielded a Mean relative activity of 0.9804.

In the case of B30, the Mean relative activity is recorded as 0.9718.

Turning to B31, the Mean relative activity came out at 0.9739.

Molecule B32 displayed a Mean relative activity of 0.9779.

Take B33: the Mean relative activity was found to be 0.9691.

The molecule B34 displayed a Mean relative activity of 0.9786.

B35: the Mean relative activity stood at 0.9803.

The molecule B36 displayed a Mean relative activity of 0.9836.

For B37, the Mean relative activity worked out at 0.9817.

In the case of B38, the Mean relative activity is 0.9777.

Staying with this data set, now noted: sgRNA constant region variants; relative to the original, un-modified constant region cr995 (= 1).
The molecule B39 came in with a Mean relative activity of 0.9863.
